Drawing on patent US20070178531A1 (BIOCHECK, published 2007), this text covers A450 for five molecules.

Substitutions are numbered along the chain they refer to.

In one assay the target is T1, Human Id1: Histidine (human, UniProt P41134 1-155, limits assumed).
T1 construct: Fusion protein made in E. coli from vector pGW07; also called h-Id1: his; not shown: His tag
T1 sequence (looked up): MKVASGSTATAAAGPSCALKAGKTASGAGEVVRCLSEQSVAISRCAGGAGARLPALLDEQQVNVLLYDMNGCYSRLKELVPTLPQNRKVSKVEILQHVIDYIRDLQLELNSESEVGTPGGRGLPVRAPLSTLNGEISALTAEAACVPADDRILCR
The assay can be described thus: ELISA, Ab 0.050 µg/ml. The protocol:
(§1) The rabbit monoclonal anti-human Id3 (clone #3-3) and the rabbit monoclonal anti-mouse/human Id3 (clones #6-1, 16-1, 17-3, and 42-1) produced in Example 6 were tested reactivity against the following antigens: mouse Id1:His, human Id1:His, mouse Id2:His, human Id2:His, mouse Id3:His, human Id3:His, mouse Id4:His, human Id4:His and GST.
(§2) 1. Microtiter wells (prepared in accordance with Example 6) were coated (0.1 μg/well) with mouse Id1:His, human Id1:His, human Id2:His, human Id3:His, and 1.0 μg/well with GST. [0155] 2. Antibody Diluent: 0.25% (w/v) BSA in 0.015M KPO₄ Buffer, 0.85% (w/v) NaCl, 0.1% (w/v) NaN₃, pH=7.40 [0156] 3. Rabbit monoclonal anti-human Id3 (clone #3-3) prepared in Example 7 was diluted to […] with the antibody diluent. […] 4. Rabbit monoclonal anti-mouse/human Id3 (clones #6-1, 16-1, 17-3, 42-1) prepared in Example 7 was diluted to 0.005, 0.010, 0.025, 0.05, 0.10, 0.25, and 0.50 μg/ml with the antibody diluent. […] 5. Conjugate Diluent: 50% (v/v) which consists of an aqueous solution containing Fetal Bovine Serum in 0.05 M Tris, 1% (v/v) Proclin-300, pH 7.6. [0159] 6. Conjugate: Goat anti-rabbit IgG (H+L)-HRP conjugate. [0160] 7. TMB reagent. […] 8. Stop solution (1 N HCI). Method
(§3) 1. Dispense 100 μL of antibody diluent, diluted rabbit monoclonal human Id3, and mouse/human Id3 hybridoma supernatants into appropriate wells. […] 2. Incubate at room temperature with mechanical shaking at 750 rpm for 90 minutes. [0165] 3. Remove the incubation mixture by flicking plate content into an appropriate waste container followed by rinsing the wells 5 times with distilled water. [0166] 4. Strike the wells sharply onto absorbent paper or paper towels to remove all residual water droplets. [0167] 5. Dispense 100 μL of 1:50,000 Goat Anti-Rabbit IgG-HRP Conjugate Reagent into each well. Gently mix for 5 seconds. [0168] 6. Incubate at room temperature with mechanical shaking at 750 rpm for 90 minutes. [0169] 7. Repeat procedures 3 and 4. [0170] 8. Dispense 100 μL of TMB Reagent into each well. Gently mix for 5 seconds. [0171] 9. Incubate at room temperature with mechanical shaking at 750 rpm for 20 minutes. […] 10.

Assay [1] concerns the target T2, Mouse Id2: Histidine (mouse, UniProt P41136 1-134, limits assumed).
T2 construct: Fusion protein made in E. coli from vector pGW07; also called m-Id2: His; not shown: His tag
T2 sequence (looked up): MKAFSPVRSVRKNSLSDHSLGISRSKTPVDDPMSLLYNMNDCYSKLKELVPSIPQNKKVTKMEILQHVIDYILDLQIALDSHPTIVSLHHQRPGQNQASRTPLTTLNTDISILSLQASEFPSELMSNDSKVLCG
The assay can be described thus: ELISA, Ab 0.050 µg/ml. The protocol:
as §1, §2, §3
A general note: ELISA stands for enzyme-linked immunosorbent assay.

The target in assay [2] is T3, Mouse Id3: Histidine (mouse, UniProt P41133 1-119).
T3 construct: Fusion protein made in E. coli from vector pGW07; also called m-Id3: His; Mouse Id3 (coated wells); not shown: His tag
T3 sequence: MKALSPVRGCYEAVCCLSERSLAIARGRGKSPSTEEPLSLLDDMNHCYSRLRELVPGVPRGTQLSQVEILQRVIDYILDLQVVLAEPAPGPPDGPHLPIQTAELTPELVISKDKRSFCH
The assay can be described thus: ELISA, Ab 0.050 µg/ml. The protocol:
as §1, §2, §3

A further assay addresses T4, Human Id3: Histidine (human, UniProt Q02535 1-119 at identity 1.00)).
T4 construct: Fusion protein made in E. coli from vector pGW07; also called h-Id3: His; Human Id3 (coated wells); not shown: His tag
T4 chain: T3 sequence with S31G, S33A, T34A, T105A, K112N
The assay is described as follows: ELISA, Ab 0.050 µg/ml. The protocol:
as §1, §2, §3

The target of assay [3] is T2, Mouse Id2: Histidine. The assay can be described thus: ELISA, Ab 0.025 µg/ml. As to the method: as §3, with “10. Add 100 μL of Stop Solution (1N HCl) into each well. [0173] 11. Gently mix for 10 seconds to ensure a complete mixing. [0174] 12. Read optical density at A450 nm.” for “10.”
(§4) Cross-reactivity of rabbit monoclonal anti-mouse/human Id3 (clone #6-1) and commercial rabbit polyclonal antibody (Santa Cruz Biotechnology) were determined according to the procedures of Example 9.

The target of a further assay is T5, Human Id2: Histidine (human, UniProt Q02363 1-134, limits assumed).
T5 construct: Fusion protein made in E. coli from vector pGW07; also called h-Id2: His; not shown: His tag
T5 sequence (looked up): T2 sequence (looked up) with T60S, V131A
The assay is described as follows: ELISA, Ab 0.025 µg/ml. The protocol: as §3, with “10. Add 100 μL of Stop Solution (1N HCl) into each well. [0173] 11. Gently mix for 10 seconds to ensure a complete mixing. [0174] 12. Read optical density at A450 nm.” for “10.”
as §4

Assay [4] has as its target T3, Mouse Id3: Histidine. The assay is described as follows: ELISA, Ab 0.025 µg/ml. The protocol:
as §3, with “10. Add 100 μL of Stop Solution (1N HCl) into each well. [0173] 11. Gently mix for 10 seconds to ensure a complete mixing. [0174] 12. Read optical density at A450 nm.” for “10.”
as §4

B1: rabbit monoclonal anti-mouse/human Id3, clone #BCH-4/#16-1 (antibody, V domains shown)
VH: QSVEESGGRLVTPGTPLTLTCTASGFSLSSYYIHWVRQAPGKALEWIGYISDGGTTYYASWAKGRFTISKTSSTTVDLKMTSLTTEDTATYFCARQGFNIWGPGTLVTVSL
VL: AVLTQTPSPVSAAVGGTVTISCQSSQSVYNNNWLSWFQQKSGQPPKLLIYETSKLESGVPSRFKGSGSGTQFTLTIIDVQCDDAATYYCLGGYWTTSDNNIFGGGTEVVVK
notes: Rabbit IgG from a rabbit hybridoma; also called m/h Id3 MoAb 16-1
Consider B1, for which the A450 in the assay with Human Id1: Histidine turned out to be 0.047 A450; in the assay with Mouse Id2: Histidine [1], 0.051 A450; with Mouse Id3: Histidine [2], 1.57 A450; in the assay with Human Id3: Histidine, 1.4 A450.

B2: rabbit monoclonal anti-mouse/human Id3, clone #BCH-4/#17-3 (antibody, V domains shown)
VH: B1 VH with S30N, Y31V, A43G, G54D, T56A, Y57R, S60T, D77N
VL: B1 VL with T19S, Y29W, S41P, I77S, I101V
notes: Rabbit IgG from a rabbit hybridoma; also called m/h Id3 MoAb 17-3; BCH-3/#17-3
For B2, the A450 came out at 0.044 A450 with Human Id1: Histidine, 0.054 A450 with Mouse Id2: Histidine [1], 2.19 A450 in the assay with Mouse Id3: Histidine [2] and 1.8 A450 in the assay with Human Id3: Histidine.

B3: rabbit monoclonal anti-mouse/human Id3, clone #BCH-4/#6-1 (antibody, V domains shown)
VH: B1 VH with S30N, Y31V, A43G, G54D, T56A, Y57R, S60T, D77N
VL: B1 VL with T19S, Y29W, S41P, I77S, I101V
notes: Rabbit IgG from a rabbit hybridoma; also called m/h Id3 MoAb 6-1
As to B3, the A450 with Human Id1: Histidine stood at 0.052 A450; with Mouse Id2: Histidine [1], 0.051 A450; in the assay with Mouse Id3: Histidine [2] it was 1.75 A450; with Human Id3: Histidine, 1.61 A450; with Mouse Id2: Histidine [3], 0.076 A450; with Human Id2: Histidine, 0.088 A450. Besides, the A450 in the assay with Mouse Id3: Histidine [4] amounted to 1.15 A450.

B4: rabbit monoclonal anti-mouse/human Id3, clone #BCH-4/#42-1 (antibody, V domains shown)
VH: B1 VH
VL: B1 VL with T95S
notes: Rabbit IgG from a rabbit hybridoma; also called m/h Id3 MoAb 42-1
As for B4, the A450 with Human Id1: Histidine is 0.045 A450; with Mouse Id2: Histidine [1], 0.051 A450; with Mouse Id3: Histidine [2], 2.23 A450; with Human Id3: Histidine it was 2 A450.

B5: rabbit monoclonal anti-human Id3, clone #BCH-4/#3-3 (antibody, V domains shown)
VH: QSVEESGGRLVTPGTPLTLTCTVSGIDLSSYAMSWVRQAPGKGLEWIGVIFPSNNVYYASWAKGRFTISKTSTTVDLKITSPTTEDTATYFCASMGAFDSWGPGTLVTVSS
VL: QVLTQTPSPVSAAVGGTVTINCQASQSIYNDNDLAWFQQKPGQPPKLLIYDASTLTSGVPSRFKGSGSGTQFTLTISDLDCDDAATYYCAARYSGNIYGFGGGTEVVVK
notes: Rabbit IgG from a rabbit hybridoma; also called h Id3 MoAb 3-3
B5: the A450 was determined as 0.05 A450 in the assay with Human Id1: Histidine and 0.048 A450 with Mouse Id2: Histidine [1].
